According to US20180118816A1 (IGM BIOSCIENCES, published 2018):

B1: HIV02 IgM+J (HIV02M+J) (antibody)
heavy: QVQLVQSGGQMKKPGESMRISCQASGYEFIDCTLNWVRLAPGRRPEWMGWLKPRGGAVNYARPLQGRVTMTRDVYSDTAFLELRSLTADDTAVYYCTRGKNCDYNWDFEHWGRGTPVTVSSGSASAPTLFPLVSCENSPSDTSSVAVGCLAQDFLPDSITFSWKYKNNSDISSTRGFPSVLRGGKYAATSQVLLPSKDVMQGTDEHVVCKVQHPNGNKEKNVPLPVIAELPPKVSVFVPPRDGFFGNPRKSKLICQATGFSPRQIQVSWLREGKQVGSGVTTDQVQAEAKESGPTTYKVTSTLTIKESDWLSQSMFTCRVDHRGLTFQQNASSMCVPDQDTAIRVFAIPPSFASIFLTKSTKLTCLVTDLTTYDSVTISWTRQNGEAVKTHTNISESHPNATFSAVGEASICEDDWNSGERFTCTVTHTDLPSPLKQTISRPKGVALHRPDVYLLPPAREQLNLRESATITCLVTGFSPADVFVQWMQRGQPLSPEKYVTSAPMPEPQAPGRYFAHSILTVSEEEWNTGETYTCVVAHEALPNRVTERTVDKSTGKPTLYNVSLVMSDTAGTCY
light: EIVLTQSPGTLSLSPGETAIISCRTSQYGSLAWYQQRPGQAPRLVIYSGSTRAAGIPDRFSGSRWGPDYNLTIRNLESGDFGLYYCQQYEFFGQGTKVQVDIKRTVAAPSVFIFPPSDEQLKSGTASVVCLLNNFYPREAKVQWKVDNALQSGNSQESVTEQDSKDSTYSLSSTLTLSKADYEKHKVYACEVTHQGLSSPVTKSFNRGEC
chain: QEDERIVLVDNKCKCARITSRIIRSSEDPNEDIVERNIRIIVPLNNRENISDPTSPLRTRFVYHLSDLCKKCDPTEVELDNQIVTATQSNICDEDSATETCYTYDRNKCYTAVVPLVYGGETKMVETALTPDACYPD
notes: also called the IgM+J
B2: HIV02 IgG (HIV02G) (antibody, V domains shown)
VH: QVQLVQSGGQMKKPGESMRISCQASGYEFIDCTLNWVRLAPGRRPEWMGWLKPRGGAVNYARPLQGRVTMTRDVYSDTAFLELRSLTADDTAVYYCTRGKNCDYNWDFEHWGRGTPVTVSS
VL: EIVLTQSPGTLSLSPGETAIISCRTSQYGSLAWYQQRPGQAPRLVIYSGSTRAAGIPDRFSGSRWGPDYNLTIRNLESGDFGLYYCQQYEFFGQGTKVQVDI
notes: also called the IgG

Experiments:
[1] = biological target: T1, HIV gp120 antigen (strain HXB2, Immune Tech, cat #IT-001-0022p-PBS) (HIV, strain HXB2, UniProt P04578 33-511); assay: ELISA, gp120 coated at 1 µg/mL
T1 construct: domain: gp120; Bought protein coated on ELISA plates; also called gp120 HBX2

[2] = biological target: T1, HIV gp120 antigen (strain HXB2, Immune …); assay: ELISA, interpolated EC10 values; gp120 coated at 0.1 µg/mL
[3] = biological target: T1, HIV gp120 antigen (strain HXB2, Immune …); assay: ELISA, interpolated EC10 values; gp120 coating 0.1 µg/mL end of the series
[4] = biological target: T1, HIV gp120 antigen (strain HXB2, Immune …); assay: ELISA, interpolated EC10 values; gp120 coating 1.0 µg/mL end of the series
[5] = biological target: T1, HIV gp120 antigen (strain HXB2, Immune …); assay: ELISA, gp120 coated at 1 µg/mL, anti-human kappa-HRP detection; value given to the IgM+J by the sense of the sentence, not by its word order
[6] = biological target: T1, HIV gp120 antigen (strain HXB2, Immune …); assay: ELISA, gp120 coated at 1 µg/mL, anti-human kappa-HRP detection; value given to the IgG by the sense of the sentence, not by its word order

Binder	fold better binding than HIV02G, on a molar basis [1]	fold difference in EC50 against HIV02G, by weight [1]	fold better binding than the IgG (HIV02G), on a molar basis [2]	fold binding relative to the IgG (HIV02G), on a weight basis (from EC10) [3]	fold binding relative to the IgG (HIV02G), on a weight basis (from EC10) [4]	EC50 [5]	EC50 [6]
B1	42 fold	7 fold	120 fold	20 fold	5 fold	0.32 µg/mL	–
B2	–	–	–	–	–	–	2.3 µg/mL
